T1: recombinant human ZNRF3 extracellular domain (human, UniProt Q9ULT6 56-219)
T1 construct: extracellular domain; also called huZNRF3; human ZNRF3 ECD
T1 sequence (looked up): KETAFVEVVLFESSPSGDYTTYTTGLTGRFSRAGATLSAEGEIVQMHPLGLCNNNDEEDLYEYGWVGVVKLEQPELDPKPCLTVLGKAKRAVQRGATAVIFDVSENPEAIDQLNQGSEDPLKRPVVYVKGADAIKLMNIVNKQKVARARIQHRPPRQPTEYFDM

B1: ZNRF3-314 (antibody, V domains shown)
VH: QVQLKESGPGLVQPSQTLSLTCNVSGFSFNYYNVHWVRQPPGKGLEWLGVIWSGGNTDYNSALKPRLRISRDTSKSQVFLTLNSLQTEDTGIYYCNRMWGYGYNPFDYWGQGVMVTVSS
VL: DIQMTQSPSFLSASLGNNITITCHASQDIKGWLAWYQQKSGNAPELLIYKTSSLQSGVPSRFSGSGSGTEYVLTISNLQPDDIATYYCQLYHSFPFTFGSGTKLEIK
notes: Rat clone; VH/VL only
B2: ZNRF3-301 (antibody, V domains shown)
VH: QVQLKESGPGLVQPSQTLSLTCTVSGFSLTSYSVHWVRQHSGKSLEWMGRIWSDGDTSYNSAFTSRLSISRDTSKSQVFLKMNSLQTEDTGTYYCDRSGGSPFFDYWGQGVMVTVSS
VL: QFVLTQSNSVSTNLGSTVKLSCERSIGNIGSNYVNWYQQYEGRSPTTMIYKFDQRPDGVPDRFSGSIDRSSNSVLLTINNVQTEDEADYFCQSYSSDMYIFGGGTKLTVL
notes: Rat clone; VH/VL only
B3: ZNRF3-269 (antibody, V domains shown)
VH: EIQLQESGPGLVKPSQSLSLTCSVTDDTITSGYDWSWIRKFPGNKMEWMGDISSSGHTNYNPSLQIRISITRDTSKNQFFLQLNSVTTEDSATYYCARGGFLFPFTFWGQGTLVTVSS
VL: DIQMTQSPSSLPASLGERVTISCRASQVLNNNLNWYQQKPDGTIKPLLYYTSNLQSGVPSRFSGSGSGTDYSLTITSLDPEDFAIYYCQQDASFPPTFGGGTKLELK
notes: Rat clone; VH/VL only
B4: ZNRF3-219 (antibody, V domains shown)
VH: EVQLVESGGGLVQPGRSLKVSCAASGFTFSTFAMAWVRQAPKKGLEWVATITPGGSNTYYPDSVKGRFTISRDNAKSTLYLQMDSLRSEDTANYYCAKCGYPGITSFDYWGQGVMVTVSS
VL: DIQMTQSPSFLSASVGDRVSINCKASQNIGKYLNWYQQELGEAPKRLIYNTNNLQTGIPSRFSGSGSGTDYTLTISGLQPEDFATYFCLQHNGFPLTFGSGTKLEIK
notes: Rat clone; VH/VL only
B5: ZNRF3-265 (antibody, V domains shown)
VH: EVQLVESGGGLVQPGRSMKLSCVASGFSFSKYGMAWVRQAPTKALEWVAIISQDGSRIYYGGSVKGRFTLSRDNEKSTLHLHMNSLRSEDTATYYCARGSILRMITFFDYWGQGVTVTVSS
VL: DIQMTQSPASLSASLGETVSIECLASEGISNDLAWYQQKSGKSPRLLIYAASRLQDGVPSRFSGSGSDTRFSLKISGMHPEDEADYFCQQSYGYPLTFGSGTKLEIK
notes: Rat clone; VH/VL only
B6: ZNRF3-253 (antibody, V domains shown)
VH: EVQLVESGGGLVQPERSMKLSCAASGFTFSNYGMAWVRQAPTKGLEWVATINSDGSGTYYRGSVKGRFTISRDNAKSTLYLQMNSLRSDDTATYYCTRGRMLRIISFFDYWGQGVMVTVSS
VL: DIQMTQSPASLSASLGETVSIECLASEDIANDLAWYQQKSGKSPQVLIYAASRVQDGVPSRFSGSGSGTRYSLKITDMQPEDVADYFCQQSYGFPLTFGSGTKLEIK
notes: Rat clone; VH/VL only
B7: ZNRF3-300 (antibody, V domains shown)
VH: EVQLVESGGGLVQPERSMKLSCAASGFTFSNYGMAWVRQAPTKGLEWVATINSDGSGTYYRGSVKGRFTISRDNARNTLYLEMNSLRSDDTATYYCTRGRILRIITYFDYWGQGVMVTVSS
VL: DIQMTQSPASLSASVGETVSIECLASEDIANDLAWYQQKSGKSPQVLIYAASRVQDGVPSRFSGSGSGTRYSLRISDMQPEDVADYFCQQSYSFPLTFGSGTKLEIK
notes: Rat clone; VH/VL only
B8: ZNRF3-254 (antibody, V domains shown)
VH: EVQLVESGGGLVQPERSMKLSCAASGFTFNNYGMAWVRQTPTKGLEWVATINSDGSGTHYRGSVKGRFTISRDNAKGTLYLQMHNLRSDDTATYYCARGRILRIITYFDSWGQGVVVTVSS
VL: DIQMTQSPASLSASLGESVSIECLASEDIANDLAWYQQKSGRSPQVLIHAASRVQDGVPSRFSGSGSGTRYSLKITDMQPEDVADYFCQQSYGFPLTFGSGTKLEIK
notes: Rat clone; VH/VL only
B9: ZNRF3-287 (antibody, V domains shown)
VH: EVQLVGSGGGLVQPGRSLKISCAASGFTFSYYGMAWVRQAPTRGLEWVATITYNGSKSYYRDSVKGRFTISREYAKSTLYLQMDDLTSEDTATYFCARRTTGMLFDYWGQGVLVTVSS
VL: QAVLTQPNSVSMSLGSTVKLSCTLNSGNIENNFVHWYQQYEGRSPTTMIYNDDKRPDGVPDRFSGSIDSSSNSAFLTINNVEIGDEAIYFCHSFVSSIHIFGGGTKLTVL
notes: Rat clone; VH/VL only
B10: ZNRF3-247 (antibody, V domains shown)
VH: EVQLVGSGEGLVQPGSSMKLSCVASGFTFSNSGMNWIRQAPKKGLEWIALIYYTNTYYADSVKGRFTISRDNSKNTLYLEMNSLRSEDTAMYYCAKRGLTGSVDYWGQGVMVTVSS
VL: DIQMTQSPSFLSASVGDRVTINCKASQNINRYLNWYQQKLGEAPKRLIYDTSNLQTGIPSRFSGSGSGTDFTLTISSLQPEDFATYFCLQHDSFPNTFGTGTKLELK
notes: Rat clone; VH/VL only
B11: ZNRF3-296 (antibody, V domains shown)
VH: EVQLVESGGGLVQPGKSLRLSCSASGFTFSNYGLHWIRQAPGKGLDWLGYSSSNSGTVYGDAVKGRVTISRDNAKNTLYLQLNSLKSEDTAIYYCARGYSSSPFAYWGQGTLVTVSS
VL: DIVLTQSPALAVSLGQRVTISCKASQNVDGFGIGYMHWYQQKPGQKPKLLIFAGSNLASGIPARFSGSGSGTDFTLTIDPVETDDIATYYCQQNKDFPLTFGSGSRLEIT
notes: Rat clone; VH/VL only
B12: ZNRF3-223 (antibody, V domains shown)
VH: EVQLVESGGGLVQPGESLKLSCSASGFTFSNYGMHWIRQVPGKGLDWVAYITNSGGSLYAAAVKGRFTISRDNAKNTLYLELTSLKSEDTAIYHCARGYSYPGPYWGRGTLVTVSS
VL: DIQVTQSPSSLLASLGERVTITCQTGQSINNYLNWYQQRPGQAPLLLIYFATSLQTGVPSRFSGQYSGRSFTLTITSLEPEDIANYFCLQHYSPPYTFGAGTKLELR
notes: Rat clone; VH/VL only
B13: ZNRF3-231 (antibody, V domains shown)
VH: EVQLVESGGGLVQPGESLKLSCSASGFTFSNYGMHWIRQVPGKGLDWVAYISNSGGSLYADAVKGRFTISRDNAKNTLYLELNSLKSEDTAIYHCARGYSYPGPYWGQGTLVTVSS
VL: DIQVTQSPSSLLASLGERVTITCQTGQSINNYLNWYQQRPGQAPLLLIYFATSLQTGVPSRFSGQYSGRSFTLTITSLEPEDIANYFCLQHYSPPYTFGAGTKLELR
notes: Rat clone; VH/VL only
B14: ZNRF3-270 (antibody, V domains shown)
VH: EVQLVESGGGLVQPGESLKLSCSASGFTFSNYGMHWIRQVPGKGLDWVAYITNSGGSLYAAAVKGRFTISRDNAKNTLYLELTSLKPEDTAIYHCARGYSYPGPYWGRGTLVTVSS
VL: DIQVTQSPSSLLASLGERVTITCQTGQSINNYLNWYQQRPGQAPLLLIYFATSLQTGVPSRFSGQYSGRSFTLTITSLEPEDIANYFCLQHYSPPYTFGAGTKLELR
notes: Rat clone; VH/VL only
B15: ZNRF3-244 (antibody, V domains shown)
VH: EVQLVESGGGLVQPGKSLKLSCSASGFTFSSYGMHWIRQTPGKGLDWVAYISTNSGTVYADAVKGRFTISRDNAKNTLYLQLNSLQSEDTAIYYCARGYNYPGAYWGQGTLVTVSS
VL: DIQVTQSPSSLLASLGERVTITCQTSQSISNNLNWYQQKPGQAPMLLIYYATSLQTGMPSRFSGQYSGRSFTLTITSLEPEDIANYFCLQHYNPPYTFGAGTKLELK
notes: Rat clone; VH/VL only
B16: ZNRF3-329 (antibody, V domains shown)
VH: EVQLVESGGGLVQPGKSLKLSCSASGFTFSSHGMHWIRQAPGKGLDWVAYISNNSGTIYSAAVRGRFTISRDNSKNTLFLQLNSLKSEDTAIYYCARGYNYPGAYWGQGTLVTVSS
VL: DIQVTQSPSSLLASLGERVTITCQTSQSIRNYLNWYQQKPGQVPILLIYYATSLQTDMPSRFSGQYSGRSFTLTITSLEPEDIANYFCLQHYSVPYTFGAGTKLELK
notes: Rat clone; VH/VL only
B17: ZNRF3-255 (antibody, V domains shown)
VH: EVQLVESGGGLVQPGRSLKLSCAASGFTFSSFTMAWVRQAPKKGLEWVASISSGGGGTYYPDSVKGRFTISRDNAKSTLYLQMDSLRSEDTASYYCATGGFAYWGQGTLVIVSS
VL: DIQMTQSPSSLPASLGDRVTITCRASQDIGSYLRWFQQKPGKSPRLMIYGATSLANGVPSRFSGSRSGSDYSLTINNLESEDMAIYYCLQHNEFPYTFGTGTKLELK
notes: Rat clone; VH/VL only
B18: ZNRF3-237 (antibody, V domains shown)
VH: QIQLVQSGPELKKPGESVKISCKASGYTFTDYAMHWVKQVPGKGLKWMGWINTYTGKPTYADDFKGRFVFSLEASASTVNLQISNLKNEDTANVFCARGGLLSRGWFAYWGQGTLVTVSS
VL: DIVMTQTPVSLSVSLGGQVSISCRSSQSFVHSDGNSYLSWYLQKPGQSPQLLIYEVSNRLSGVPDRFSGSGSGTDFTLKISRVEHDDLGVYYCGQASKIPLTFGSGTKLEIK
notes: Rat clone; VH/VL only
B19: ZNRF3-331 (antibody, V domains shown)
VH: QSVEESGGRLVTPGTPLTLTCTVSGFSLSSYAMGWVRQAPGKGLEWIGIIYAGDTTYYASWAKGRFTISETSTTVDLKITSPTTEDTATYFCARKSDDDSDSYLLWGPGTLVTVSS
VL: AYDMTQTPASVEVAVGGTVTIKCQASQSISSYLNWYQQKRGQPPKLLIYDASTLASGVPSRFSGSGSGTEFTLTISGVQCDDAATYYCQQGWSSTNIDNIFGGGTEVVVK
notes: Rabbit clone; VH/VL only
B20: ZNRF3-332 (antibody, V domains shown)
VH: QSLEESGGGLVQPEGSLTLTCTASGIDFSTRNYMCWVRQAPGKGLEWVGCIYTSSGGTYYASWVNGRFTISKTSSTTVTLRMTSLTAADTATYFCARGGYVGYGYATYFNLWGPGTLVAVSS
VL: DVVMTQTPASVSEPVGGTVTIKCQASQSISSYLSWYQQKPGQPPKLLIYYVSNLESGVPSRFKGSGSGTEFTLTISDLECADAATYYCQNYYSSSSGWAFGGGTEVVVK
notes: Rabbit clone; VH/VL only

Each binder was assayed against T1, recombinant human ZNRF3 extracellular … (assay: SPR Biacore 8K; antibody captured on Protein A; ZNRF3 ECD analyte; 25 C).
Method: Antibodies were screened for binding to recombinant human RNF43 and ZNRF3 ECDs using a Biacore® 8 k instrument (GE Life Sciences). Briefly, antibodies diluted to 1 μg/ml in 1×HBSP buffer (Cytiva, BR100368) were captured on a Sensor Chip Protein A (GE Life Sciences) using a flow rate of 10 μl/minute and a contact time of 60 seconds. Binding of recombinant human RNF43 and ZNRF3 extracellular domain to the captured antibodies was analyzed at 25° C. using a single cycle kinetics method with a flow rate of 30 μl/minute, a contact time of 180 seconds and a dissociation time of 600 seconds. The concentration of recombinant human RNF43 and ZNRF3 extracellular domain in the single cycle kinetics were 0, 0.8, 4, 20, and 100 nM. Between cycles, the chip was regenerated using 10 mM Glycine HCl pH 1.5 injected for 30 seconds at 30 μl/minute. Data were evaluated using Biacore 8K Evaluation software (GE Life Sciences). Kinetic constants were obtained using a 1:1 binding model with the parameter RI set to zero. Cell surface ligase antibodies with sub-nanomolar affinities may provide advantages in certain instances, for example, in the degradation efficiency which is correlated with the durability of the ternary complex as shown in FIG. 5D.

B1 and B2 are within 1.5-fold of each other in Kd: 0.104 nM for the first, 0.0974 nM for the second.

First: B3
Second: B4
The Kd of the first is 6.1-fold lower: 0.312 nM for the first, 1.9 nM for the second.

Going from B5 to B6, the Kd rises from 0.0286 nM to 0.483 nM (17-fold).

Going from B7 to B8, the Kd falls from 0.239 nM to 0.104 nM (2.3-fold).

B9 and B10 are within 1.5-fold of each other in Kd: 0.191 nM for the first, 0.161 nM for the second.

B11 and B12 are within 1.5-fold of each other in Kd: 0.0371 nM for the first, 0.0443 nM for the second.

Going from B13 to B14, the Kd falls from 0.0783 nM to 0.0424 nM (1.8-fold). The second binds more tightly here.

Going from B15 to B16, the Kd falls from 6.85 nM to 0.283 nM (24-fold).

Compared with B17, B18 is 20-fold higher in Kd: 0.26 nM for the first, 5.3 nM for the second.

Going from B19 to B20, the Kd rises from 0.2 nM to 1.6 nM (8-fold).

Reference: patent US20240101708A1 (Genentech, published 2024)
